Measured values: patent US20110124071A1, “METHODS AND COMPOSITIONS FOR PRODUCING HYDROCARBONS” (priority 2009, published 2011)
Read-outs that look alike come from different tables or passages of the source.

What was measured:
PCC7942_orf1594 protein = target: T1, PCC7942_orf1594 protein (Synechococcus elongatus, UniProt Q54765); assay: acyl-ACP or acyl-CoA reductase enzyme assay, GC/MS; format: biochemical
T1 construct: His-tag (C); made in house; host or cells: E. coli BL21 (DE3)
T1 sequence (Q54765 1-341): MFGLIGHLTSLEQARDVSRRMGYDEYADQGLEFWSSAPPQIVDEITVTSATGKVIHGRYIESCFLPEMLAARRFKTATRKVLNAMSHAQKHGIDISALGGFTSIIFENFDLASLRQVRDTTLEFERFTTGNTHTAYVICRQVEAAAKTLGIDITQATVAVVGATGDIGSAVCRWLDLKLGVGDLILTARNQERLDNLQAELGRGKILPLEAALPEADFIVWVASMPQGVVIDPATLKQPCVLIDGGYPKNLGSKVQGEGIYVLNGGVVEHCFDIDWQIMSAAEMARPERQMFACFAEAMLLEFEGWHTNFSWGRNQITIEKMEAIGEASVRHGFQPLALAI
Method: The genomic DNA encoding S. elongatus PCC7492 orf1594 (SEQ ID NO: 66) was cloned into the NcoI and XhoI sites of vector pET-28b under the control of the T7 promoter. The resulting PCC7942_orf1594 protein contained a C-terminal His-tag. An E. coli BL21 strain (DE3) (Invitrogen) was transformed with the plasmid and PCC7942_orf1594 protein was expressed and purified as described in Example 22. The protein solution was stored in the following buffer: 50 mM sodium phosphate, pH 7.5, 100 mM NaCl, 1 mM THP, 10% glycerol. Protein concentration was determined using the Bradford assay (Bio-Rad). 2 mg/ml of PCC7942 orf1594 protein was obtained.
To test PCC7942_orf1594 protein for acyl-ACP or acyl-CoA reductase activity, the following enzyme assays were set-up. 100 μl reactions were set-up in 50 mM Tris-HCl buffer at pH 7.5 with the following components at their respective final concentrations: 10 μM of purified PCC7942_orf1594 protein, 0.01-1 mM acyl-CoA or acyl-ACP, 2 mM MgCl2, 0.2-2 mM NADPH. The reactions were incubated for 1 h at 37° C. and where stopped by adding 100 μl ethyl acetate (containing 5 mg/l 1-octadecene as internal standard). Samples were vortexed for 15 min and centrifuged at max speed for 3 min for phase separation. 80 μl of the top layer were transferred into GC glass vials and analyzed by GC/MS as described in Example 26. The amount of aldehyde formed was calculated based on the internal standard.

E. coli MG1655 [1] = assay: Coexpression of putative decarbonylase with S. elongatus PCC7942 orf1594 in E. coli, GC-MS of extracts; format: cell-based; conditions: coexpressed with S. elongatus PCC7942 orf1594 in E. coli MG1655, M9 minimal media
Method: After a 1 μl splitless injection (inlet temperature held at 300° C.) onto the GC/MS column, the oven was held at 100° C. for 3 mins. The temperature was ramped up to 320° C. at a rate of 20° C./min. The oven was held at 320° C. for an additional 5 min. The flow rate of the carrier gas helium was 1.3 ml/min. The MS quadrapole scanned from 50 to 550 m/z. Retention times and fragmentation patterns of product peaks were compared with authentic references to confirm peak identity.
(§1) The genomic DNA encoding Synechococcus elongatus PCC7942 orf1594 (YP—400611; putative aldehyde-generating enzyme) (SEQ ID NO: 65) was amplified and cloned into the NcoI and EcoRI sites of vector OP-80 (pCL1920 derivative) under the control of the Ptrc promoter. The resulting construct (“OP80-PCC7942—1594”) was transformed into E. coli MG1655 and the cells were grown at 37° C. in M9 minimal media with 1% (w/v) glucose as carbon source and supplemented with 100 μg/ml spectinomycin. When the culture reached OD600 of 0.8-1.0, it was induced with 1 mM IPTG and cells were grown for an additional 18-20 h at 37° C. Cells from 0.5 ml of culture were extracted with 0.5 ml of ethyl acetate. After sonication for 60 min, the sample was centrifuged at 15,000 rpm for 5 min. The solvent layer was analyzed by GC-MS as described in Example 1.
The genomic DNA encoding Synechococcus elongatus PCC7942 orf1593 (YP—400610; putative decarbonylase) (SEQ ID NO: 1) was amplified and cloned into the NdeI and XhoI sites of vector OP-183 (pACYC derivative) under the control of the Ptrc promoter. The resulting construct was cotransformed with OP80-PCC7942—1594 into E. coli MG1655 and the cells were grown at 37° C. in M9 minimal media supplemented with 100 μg/ml spectinomycin and 100 μg/ml carbenicillin. The cells were cultured and extracted as in Example 3 and analyzed by GC-MS as described in Example 1. […]

[2] = test system: E. coli MG1655 ΔfadE lacZ::Ptrc ′tesA-fadD; assay: Heterologous expression in a fatty acyl-CoA-producing E. coli strain, GC-MS; format: cell-based; conditions: for conversion of fatty aldehydes into alkanes/alkenes: decarbonylase coexpressed with acyl-ACP reductase in acyl-CoA-producing strain
Description: The genomic DNA encoding Acaryochloris marina MBIC11017 AM1—4041 (YP—001518340; putative fatty aldehyde decarbonylase) (SEQ ID NO: 9) was synthesized and cloned into the NdeI and XhoI sites of vector OP-183 (pACYC derivative) under the control of the Ptrc promoter. The resulting construct was cotransformed with OP80-PCC7942—1594 into E. coli MG1655 ΔfadE lacZ::Ptrc ′tesA-fadD. This strain expresses a cytoplasmic version of the E. coli thioesterase, ′TesA, and the E. coli acyl-CoA synthetase, FadD, under the control of the Ptrc promoter, and therefore produces fatty acyl-CoAs. The cells were grown at 37° C. in M9 minimal media supplemented with 100 μg/ml spectinomycin and 100 μg/ml carbenicillin. The cells were cultured and extracted as in Example 3 and analyzed by GC-MS as described in Example 1.
The genomic DNA encoding Synechocystis sp. PCC6803 sll0208 (NP_442147; putative fatty aldehyde decarbonylase) (SEQ ID NO: 3) was synthesized and cloned into the NdeI and XhoI sites of vector OP-183 (pACYC derivative) under the control of the Ptrc promoter. The genomic DNA encoding Synechocystis sp. PCC6803 sll0209 (NP_442146; acyl-ACP reductase) (SEQ ID NO: 68) was synthesized and cloned into the NcoI and EcoRI sites of vector OP-183 (pACYC derivative) under the control of the Ptrc promoter. The resulting constructs were cotransformed with into E. coli MG1655 ΔfadE lacZ::Ptrc ′tesA-fadD. This strain expresses a cytoplasmic version of the E. coli thioesterase, ′TesA, and the E. coli acyl-CoA synthetase, FadD, under the control of the Ptrc promoter, and therefore produces fatty acyl-CoAs. The cells were grown at 37° C. in M9 minimal media supplemented with 100 μg/ml spectinomycin and 100 μg/ml carbenicillin. The cells were cultured and extracted as in Example 3 and analyzed by GC-MS as described in Example 26.

[3] = test system: E. coli MG1655 ΔfadD lacZ::Ptrc-′tesA; assay: Heterologous expression in a fatty aldehyde-producing E. coli strain with MSMEG—5739, GC-MS; format: cell-based; conditions: decarbonylase coexpressed with carboxylic acid reductase MSMEG—5739
E. coli MG1655 [4] = assay: Heterologous expression of putative aldehyde-generating enzyme alone in E. coli, GC-MS of extracts; format: cell-based; conditions: enzyme expressed alone in E. coli MG1655, M9 minimal media, 37° C.
Method: as §1
The genomic DNA encoding Cyanothece sp. ATCC51142 cce—1430 (YP—001802846; putative aldehyde-generating enzyme) (SEQ ID NO: 70) was amplified and cloned into the NcoI and EcoRI sites of vector OP-80 (pCL1920 derivative) under the control of the Ptrc promoter. The resulting construct was transformed into E. coli MG1655 and the cells were grown at 37° C. in M9 minimal media with 1% (w/v) glucose as carbon source and supplemented with 100 μg/ml spectinomycin. The cells were cultured and extracted as in Example 3 and analyzed by GC-MS as described in Example 26.
The genomic DNA encoding P. mariunus CCMP1986 PMM0533 (NP_892651; putative aldehyde-generating enzyme) (SEQ ID NO: 72) and Prochlorococcus mariunus CCMP1986 PMM0532 (NP_892650; putative decarbonylase) (SEQ ID NO: 19) were amplified and cloned into the NcoI and EcoRI sites of vector OP-80 and the NdeI and XhoI sites of vector OP-183, respectively. The resulting constructs were separately transformed and cotransformed into E. coli MG1655 and the cells were grown at 37° C. in M9 minimal media supplemented with 100 μg/ml spectinomycin and 100 μg/ml carbenicillin. The cells were cultured and extracted as in Example 3 and analyzed by GC-MS as described in Example 26.

[5] = in the presence of 2 mM NADPH, read-out: Km for the reduction by PCC7942_orf1594

Molecule: octadecenoyl-CoA
- Km (PCC7942_orf1594 protein; [5]): 82 ± 22 µM

Molecule: NC(=O)C1=CN([C@@H]2O[C@H](COP(=O)(O)OP(=O)(O)OC[C@H]3O[C@@H](n4cnc5c(N)ncnc54)[C@H](OP(=O)(O)O)[C@@H]3O)[C@@H](O)[C@H]2O)C=CC1 [NADPH]
- Km (PCC7942_orf1594 protein; in the presence of 0.5 mM octadecanoyl-CoA, read-out: Km value for NADPH for PCC7942_orf1594): 400 ± 80 µM

Molecule: NC(=O)C1=CN([C@@H]2O[C@H](COP(=O)(O)OP(=O)(O)OC[C@H]3O[C@@H](n4cnc5c(N)ncnc54)[C@H](O)[C@@H]3O)[C@@H](O)[C@H]2O)C=CC1 [NADH]
- support of reductase activity as electron donor (PCC7942_orf1594 protein; reduction of octadecanoyl-CoA to octadecanal): did not support reductase activity

B1: AM1—4041: Acaryochloris marina MBIC11017 putative decarbonylase (SEQ ID NO: 9) (protein, listed as Acaryochloris marina)
chain: MPQTQAISEIDFYSDTYKDAYSRIDGIVIEGEQEAHENYIRLGEMLPEHQDDFIRLSKMEARHKKGFEACGRNLKVTCDLDFARRFFSDLHKNFQDAAAEDKVPTCLVIQSLIIECFAIAAYNIYIPVADDFARKITESVVKDEYQHLNYGEEWLKAHFDDVKAEIQEANRKNLPIVWRMLNEVDKDAAVLGMEKEALVEDFMIQYGEALSNIGFSTGEIMRMSAYGLVAA
- fatty aldehyde decarbonylase activity (alkane/alkene production) (E. coli MG1655 [1]): active fatty aldehyde decarbonylase
- conversion of fatty aldehydes into alkanes/alkenes [2]: converted into pentadecene, pentadecane and heptadecene
- conversion of fatty aldehydes provided by MSMEG—5739 to alkanes [3]: converted fatty aldehydes provided by MSMEG—5739 to the corresponding alkanes

B2: Synechocystis sp. PCC6803 sll0209: Synechocystis sp. PCC6803 acyl-ACP reductase (SEQ ID NO: 68) (protein, listed as Synechocystis sp.)
chain: MFGLIGHLTSLEHAQAVAEDLGYPEYANQGLDFWCSAPPQVVDNFQVKSVTGQVIEGKYVESCFLPEMLTQRRIKAAIRKILNAMALAQKVGLDITALGGFSSIVFEEFNLKQNNQVRNVELDFQRFTTGNTHTAYVICRQVESGAKQLGIDLSQATVAVCGATGDIGSAVCRWLDSKHQVKELLLIARNRQRLENLQEELGRGKIMDLETALPQADIIVWVASMPKGVEIAGEMLKKPCLIVDGGYPKNLDTRVKADGVHILKGGIVEHSLDITWEIMKIVEMDIPSRQMFACFAEAILLEFEGWRTNFSWGRNQISVNKMEAIGEASVKHGFCPLVAL
- use of acyl-CoA as substrate to produce fatty aldehydes ([2]; reductase coexpressed with a fatty aldehyde decarbonylase): able to use acyl-CoA as a substrate
- production of fatty aldehydes or fatty alcohols ([2]; reductase expressed alone in acyl-CoA-producing strain): did not produce any fatty aldehydes or fatty alcohols

B3: octadecenoyl-ACP (conjugate, UniProt Q31QV1 1-80, looked up)
Acyl carrier protein: MSQEDIFSKVKDIVAEQLSVDVAEVKPESSFQNDLGADSLDTVELVMALEEAFDIEIPDEAAEGIATVQDAVDFIASKAA
modifications: octadecenoyl acyl thioester
notes: acyl-ACP (acyl carrier protein) substrate of PCC7942_orf1594 reductase
- Km (PCC7942_orf1594 protein; [5]): 7.8 ± 2 µM

B4: ATCC51142 cce—1430: Cyanothece sp. ATCC51142 putative aldehyde-generating enzyme, Acyl-ACP reductase (SEQ ID NO: 70) (protein, listed as Cyanothece sp.)
chain: MFGLIGHLTSLEHAHSVADAFGYGPYATQGLDLWCSAPPQFVEHFHVTSITGQTIEGKYIESAFLPEMLIKRRIKAAIRKILNAMAFAQKNNLNITALGGFSSIIFEEFNLKENRQVRNVSLEFDRFTTGNTHTAYIICRQVEQASAKLGIDLSQATVAICGATGDIGSAVCRWLDRKTDTQELFLIARNKERLQRLQDELGRGKIMGLEEALPEADIIVWVASMPKGVEINAETLKKPCLIIDGGYPKNLDTKIKHPDVHILKGGIVEHSLDIDWKIMETVNMDVPSRQMFACFAEAILLEFEQWHTNFSWGRNQITVTKMEQIGEASVKHGLQPLLSW
- production of fatty aldehydes and fatty alcohols (E. coli MG1655 [4]): generates aldehydes in vivo

B5: Synechocystis sp. PCC6803 sll0208: Synechocystis sp. PCC6803 putative fatty aldehyde decarbonylase (SEQ ID NO: 3) (protein, listed as Synechocystis sp.)
chain: MPELAVRTEFDYSSEIYKDAYSRINAIVIEGEQEAYSNYLQMAELLPEDKEELTRLAKMENRHKKGFQACGNNLQVNPDMPYAQEFFAGLHGNFQHAFSEGKVVTCLLIQALIIEAFAIAAYNIYIPVADDFARKITEGVVKDEYTHLNYGEEWLKANFATAKEELEQANKENLPLVWKMLNQVQGDAKVLGMEKEALVEDFMISYGEALSNIGFSTREIMRMSSYGLAGV
- conversion of fatty aldehydes into alkanes/alkenes [2]: octadecenal was converted into heptadecene
